Data as given in US5770191, “Active C-terminal peptides of interferon--gamma and their use” (University of Florida, dated 1998).

T1: murine IFNγ receptor (murine, UniProt P15261)
T1 sequence: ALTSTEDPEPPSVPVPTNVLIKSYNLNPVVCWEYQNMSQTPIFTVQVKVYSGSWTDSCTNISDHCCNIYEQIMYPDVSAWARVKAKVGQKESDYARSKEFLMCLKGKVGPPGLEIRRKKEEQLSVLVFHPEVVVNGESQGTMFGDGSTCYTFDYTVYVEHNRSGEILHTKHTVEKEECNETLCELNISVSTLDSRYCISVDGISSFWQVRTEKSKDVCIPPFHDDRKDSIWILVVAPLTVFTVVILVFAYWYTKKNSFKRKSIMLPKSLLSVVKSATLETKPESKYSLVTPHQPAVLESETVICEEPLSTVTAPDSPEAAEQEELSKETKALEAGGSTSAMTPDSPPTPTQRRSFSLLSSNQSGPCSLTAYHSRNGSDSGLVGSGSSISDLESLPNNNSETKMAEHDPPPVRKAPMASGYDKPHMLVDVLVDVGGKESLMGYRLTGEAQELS


Biological target: T1, murine IFNγ receptor
Test: cell-based or functional assay

Binder | Ia (MHC class II) expression on P388D1 cells by FACS, peptide at 100 µM, 24 hours
AKFEVNNPQVQRQAFNELIRVVHQLLPESSLRKRKRSRC [muIFNγ (95-133)] | 10 fold
LTNYSVTDLNVQRKAIHELIQVMAELSPAAKTGKRKRSQM [huIFNγ (95-134)] | 10 fold
